Patent US11571480B2, “Multi-ligand drug conjugates and uses thereof” (priority 2015, dated 2023)
Numbered stars: 1 amine (or outer) side, 2 acyl side, 3 side chain; on linkers, the order of the positions; unused ones are H or OH. Bridge positions count the residues as written; N and C are the ends. Square brackets hold non-standard residues; d marks the D form. Peptide text beside a SMILES is read from it. I, II: the chains in the order shown. * marks the point of attachment. Hexanoyl(6-succinimido-3yl) = O=C1CC([*:1])C(=O)N1CCCCCC(=O)[*:2]; Dolaproine = CO[C@@H]([C@@H]1CCCN1)[C@@H](C)C(=O)O; Dil = CC[C@H](C)[C@H](NC)[C@@H](CC(=O)O)OC; PABC = O=C(OCc1ccc(N[*:1])cc1)[*:2]; X1 = C[C@@H](N*)[C@@H](O)c1ccccc1; Cit = NC(=O)NCCC[C@H](N)C(=O)O; NMeV = CN[C@H](C(=O)O)C(C)C

Assays:
[1] = tested on: Transplanted HCC1954 tumor; assay: Inhibitory assay of conjugates LDC10B and LDC10H against xenograf tumors; assay type: in vivo, nude mice; settings: 10 mg/kg
Procedure: (§1) Animal: nude mice, aged 6-8 weeks, female
(§2) 1) human large cell lung cancer cell H460, human lung cancer cell A549, ovarian cancer cell SKOV3, and breast cancer cell line HCC1954 were incubated at 37° C., 5% CO2 in IMDM medium containing 10% fetal bovine serum, the cells were passaged every 2-3 days.
(§3) 2) generation of tumors: 7×10^6 tumor cells were injected subcutaneously into the back of nude mice, and the mice were grouped for treatment after the tumor sizes were as large as about 100-200 mm^3.
(§4) 3) treatment: 3 mice/group, treated with LDC10B, LDC10H, as well as controls MMAE and PBS with doses of 5 and 10 mg/kg every 5 days, three injections.
(§5) 4) the physical performance, body weights and tumor sizes of the animals were monitored. The number of animal death was recorded during the experiment.

Transplanted H460 tumor = assay: as above; assay type: in vivo, nude mice
Procedure: as §1, §2, §3, §4, §5

[2] = tested on: breast cancer cell line HCC1954; assay: Cytotoxicity test of conjugate LDC10H; assay type: cell-based, human; settings: HCC1954, incubated 15-30 min, then 2-3 days
Procedure: (§6) Culture medium: RPMI 1640 Medium, no folic acid
(§7) 1) human lung cancer cell H1299, ovarian cancer cell SKOV3, breast cancer cell line HCC1954, and human lung cancer cell H460 were incubated at 37° C., 5% CO2 in RPMI 1640 medium containing 10% fetal bovine serum, the cells were passaged every 2-3 days.
(§8) 2) human lung cancer cell H1299, ovarian cancer cell SKOV3, breast cancer cell line HCC1954, and human lung cancer cell H460 were plated at 1×10^3 cells per well (96-well plate) and incubated for 8-12 h at 37° C., 5% CO2.
(§9) 3) Stock solutions of LDC conjugates or control were prepared in PBS solution. 100 μL/well of serially diluted LDC conjugates or control was added to the cells in the plate and incubated for 15-30 min at 37° C., 5% CO2. The culture medium in the wells was then removed by aspiration and the cells were incubated in fresh culture medium without conjugates (150 μL/well) for 2-3 days at 37° C., 5% CO2.
(§10) 4) CellTiter 96® Aqueous One Solution Cell Proliferation Assay (Promega) was added to each well to measure the amount of […] cells, and the plate was incubated in an incubator for 1 h at 37° C., 5% CO2.
(§11) 5) the plate was read at 490 nm on a microplate reader, and the cell survivals were compared for cells with or without the treatment of LDC conjugates. The LDC drug concentrations that are required for 50% cell death (IC50 values) were determined.

[3] = tested on: ovarian cancer cell SKOV3; assay: Cytotoxicity test of conjugate LDC10H; assay type: cell-based, human; settings: SKOV3, incubated 15-30 min, then 2-3 days
Procedure: as §6, §7, §8, §9, §10, §11

[4] = tested on: human lung cancer cell H460; assay: Cytotoxicity test of conjugate LDC10H; assay type: cell-based; settings: H460, incubated 15-30 min, then 2-3 days
Procedure: as §6, §7, §8, §9, §10, §11

[5] = tested on: human lung cancer cell H1299; assay: Cytotoxicity test of conjugate LDC10H; assay type: cell-based; settings: H1299, incubated 15-30 min, then 2-3 days
Procedure: as §6, §7, §8, §9, §10, §11

[6] = Detection of conjugate concentrations in xenograf tumor models (serum, anti-MMAE ELISA); assay type: in vivo, nude mice; settings: 10 mg/kg, peritoneal injection
Procedure: as §1
1) Human ovarian cancer cell SKOV3 and breast cancer cell line HCC1954 were incubated at 37° C., 5% CO2 in IMDM medium containing 10% fetal bovine serum, the cells were passaged every 2-3 days.
2) generation of tumors: 7×10^6 tumor cells were injected subcutaneously into the back of nude mice, and the mice were grouped for treatment after the tumor sizes were as large as about 100˜200 mm^3.
3) treatment: 3 mice/group, 10 mg/kg, peritoneal injection.
4) blood collection: the time for blood collection before treatment was set as 0, blood was collected at 20 min, 2 h, 4 h, and 24 h after treatment. The blood was centrifuged to collect serum, which was frozen and preserved.
5) Detection: the total amount of MMAE, LDC10B, LDC10H, as well as the MMAE metabolites of LDC10B and LDC10H in serum were detected by mice anti-MMAE ELISA kit.

melanoma cell line A375 = assay: Cytotoxicity test of conjugate LDC1013; assay type: cell-based
Procedure: as §6
1) human nasopharyngeal cancer cell line KB, melanoma cell line A375, and human lung cancer cell H460 were incubated at 37° C., 5% CO2 in RPMI 1640 medium containing 10% fetal bovine serum, the cells were passaged every 2-3 days.
2) human nasopharyngeal cancer cell line KB, melanoma cell line A375, and human lung cancer cell H460 were plated at 1×10^3 cells per well (96-well plate) and incubated for 8-12 h at 37° C., 5% CO2.
as §9, §10, §11

[7] = tested on: Transplanted HCC1954 tumor; assay: Inhibitory assay of conjugate LDC1013 against xenograf tumors; assay type: in vivo, nude mice; settings: for Body weight of mice / Tumor size: HCC1954 tumor
Procedure: as §1
1) Human breast cancer cells HCC1954 were incubated at 37° C., 5% CO2 in IMDM medium containing 10% fetal bovine serum, the cells were passaged every 2-3 days.
2) generation of tumors: 7×10^6 tumor cells were injected subcutaneously into the back of nude mice, and the mice were grouped for treatment after the tumor sizes were as large as about 180-320 mm^3. […]
as §5

[8] = 2.5 mg/kg, 3 days after Injection 1
[9] = 2.5 mg/kg, 3 days after Injection 2
[10] = 2.5 mg/kg, 3 days after Injection 3
[11] = 2.5 mg/kg, 3 days after Injection 4
[12] = 2.5 mg/kg, 4 days after Injection 5
[13] = 2.5 mg/kg, 5 days after Injection 6
[14] = 2.5 mg/kg, 6 days after Injection 7
[15] = 5 mg/kg, 3 days after Injection 1
[16] = 5 mg/kg, 3 days after Injection 2
[17] = 5 mg/kg, 3 days after Injection 3
[18] = 5 mg/kg, 3 days after Injection 4
[19] = 5 mg/kg, 4 days after Injection 5
[20] = 5 mg/kg, 5 days after Injection 6

SMILES: CC[C@H](C)[C@@H]([C@@H](CC(=O)N1CCC[C@H]1[C@H](OC)[C@@H](C)C(=O)N[C@H](C)[C@@H](O)c1ccccc1)OC)N(C)C(=O)[C@@H](NC(=O)[C@H](C(C)C)N(C)C(=O)OCc1ccc(NC(=O)[C@H](CCCNC(N)=O)NC(=O)[C@@H](NC(=O)CCCCCN2C(=O)CC(SC[C@H](NC(=O)[C@H](CCCNC(=N)N)NC(=O)[C@H](CCCNC(=N)N)NC(=O)[C@H](CCCNC(=N)N)NC(=O)[C@H](CCCNC(=N)N)NC(=O)[C@H](CCCNC(=N)N)NC(=O)[C@H](CCCNC(=N)N)NC(=O)[C@H](CCCNC(=N)N)NC(=O)[C@H](CCCNC(=N)N)NC(=O)[C@@H](N)CCCNC(=N)N)C(=O)N[C@@H](CCCCN)C(=O)N[C@@H](CCC(=O)O)C(=O)N[C@@H](Cc3ccccc3)C(=O)N[C@@H](CC(C)C)C(=O)N[C@@H](Cc3c[nH]cn3)C(=O)N3CCC[C@H]3C(=O)N[C@@H](CO)C(=O)N[C@@H](CCCCN)C(=O)N[C@H](C(=O)N[C@@H](CC(=O)O)C(=O)N[C@@H](CC(C)C)C(=O)N3CCC[C@H]3C(=O)N[C@@H](CCCNC(=N)N)C(=O)O)C(C)C)C2=O)C(C)C)cc1)C(C)C (stereo partly shown) [LDC10H] (I: H-RRRRRRRRRCKEFLHPSKVDLPR-OH / II: V[Cit][PABC][NMeV]V[Dil][Dolaproine]-X1; linker I:10-II:N via Hexanoyl(6-succinimido-3yl))
- Body weight of mice ([1]; Before Injection): 22.05 g
- Body weight of mice ([1]; Five days after Injection 1): 23.32 g
- Body weight of mice ([1]; Five days after Injection 2): 22.87 g
- Body weight of mice ([1]; Five days after Injection 3): 22.51 g
- Body weight of mice (Transplanted H460 tumor; 5 mg/kg, Before Injection): 23.29 g
- Body weight of mice (Transplanted H460 tumor; 5 mg/kg, Five days after Injection 1): 24.26 g
- Body weight of mice (Transplanted H460 tumor; 5 mg/kg, Five days after Injection 2): 23.14 g
- Body weight of mice (Transplanted H460 tumor; 5 mg/kg, Five days after Injection 3): 23.22 g
- Body weight of mice (Transplanted H460 tumor; 10 mg/kg, Before Injection): 23.37 g
- Body weight of mice (Transplanted H460 tumor; 10 mg/kg, Five days after Injection 1): 24.39 g
- Body weight of mice (Transplanted H460 tumor; 10 mg/kg, Five days after Injection 2): 22.12 g
- Body weight of mice (Transplanted H460 tumor; 10 mg/kg, Five days after Injection 3): 23.61 g
- IC50 [2]: 36 nM
- IC50 [3]: 73.8 nM
- IC50 [4]: 85.3 nM
- IC50 [5]: 90.4 nM
- Concentration in serum ([6]; 20 min): 770 ng/mL
- Concentration in serum ([6]; 2 h): 580 ng/mL
- Concentration in serum ([6]; 4 h): 196 ng/mL
- Concentration in serum ([6]; 24 h): 0 ng/mL
- detected in serum at 24 h after treatment (in words) ([6]; 24 h): none
- Concentration in serum ([6]; Before Treatment): 0 ng/mL

SMILES: CC[C@H](C)[C@@H]([C@@H](CC(=O)N1CCC[C@H]1[C@H](OC)[C@@H](C)C(=O)N[C@H](C)[C@@H](O)c1ccccc1)OC)N(C)C(=O)[C@@H](NC(=O)[C@H](C(C)C)N(C)C(=O)OCc1ccc(NC(=O)[C@H](CCCNC(N)=O)NC(=O)[C@@H](NC(=O)CCCCCN2C(=O)CC(SC[C@H](NC(=O)[C@H](CCCNC(=N)N)NC(=O)[C@H](CCCNC(=N)N)NC(=O)[C@H](CCCNC(=N)N)NC(=O)[C@H](CCCNC(=N)N)NC(=O)[C@H](CCCNC(=N)N)NC(=O)[C@H](CCCNC(=N)N)NC(=O)[C@H](CCCNC(=N)N)NC(=O)[C@H](CCCNC(=N)N)NC(=O)[C@@H](N)CCCNC(=N)N)C(=O)NCCCC[C@H](NC(=O)[C@H](Cc3ccc(O)cc3)NC(=O)[C@H](CO)NC(=O)[C@H](Cc3c[nH]c4ccccc34)NC(=O)[C@H](Cc3c[nH]cn3)NC(=O)[C@@H]3CCC(=O)N3)C(=O)N[C@@H](CC(C)C)C(=O)N[C@@H](CCCNC(=N)N)C(=O)N3CCC[C@H]3C(=O)NCC(N)=O)C2=O)C(C)C)cc1)C(C)C (stereo partly shown) [LDC1013]
- less toxic for A375 than for H460 and KB, respectively (melanoma cell line A375): 10-100 fold
- tumor response (in words) ([7]; HCC1954, 7 doses at 2.5 mg/kg and 7 doses of 5 mg/kg injected every three days): completely eliminate
- Body weight of mice [7, 8]: 24.46 g
- Tumor size [7, 8]: 198 mm^3
- Body weight of mice [7, 9]: 24.54 g
- Tumor size [7, 9]: 198 mm^3
- Body weight of mice [7, 10]: 23.94 g
- Tumor size [7, 10]: 180 mm^3
- Body weight of mice [7, 11]: 24.3 g
- Tumor size [7, 11]: 113 mm^3
- Body weight of mice [7, 12]: 24.98 g
- Tumor size [7, 12]: 64 mm^3
- Body weight of mice [7, 13]: 24.73 g
- Tumor size [7, 13]: 22 mm^3
- Body weight of mice [7, 14]: 24.43 g
- Tumor size [7, 14]: 0 mm^3
- Body weight of mice ([7]; 2.5 mg/kg, Before Injection): 24.14 g
- Tumor size ([7]; 2.5 mg/kg, Before Injection): 180 mm^3
- Body weight of mice [7, 15]: 20.7 g
- Tumor size [7, 15]: 405 mm^3
- Body weight of mice [7, 16]: 20.43 g
- Tumor size [7, 16]: 405 mm^3
- Body weight of mice [7, 17]: 21.31 g
- Tumor size [7, 17]: 288 mm^3
- Body weight of mice [7, 18]: 21.15 g
- Tumor size [7, 18]: 88 mm^3
- Body weight of mice [7, 19]: 21.21 g
- Tumor size [7, 19]: 40 mm^3
- Body weight of mice [7, 20]: 20.49 g
- Tumor size [7, 20]: 0 mm^3
- Body weight of mice ([7]; 5 mg/kg, 6 days after Injection 7): 24.49 g
- Body weight of mice ([7]; 5 mg/kg, Before Injection): 21.92 g
- Tumor size ([7]; 5 mg/kg, Before Injection): 320 mm^3
